Test: melting temperature; melt of duplexes
Conditions: sodium 0.0675 M; strand 1 µM

Going from “CGACGTGCTTGATGTGCTG+CAGCACATCATGCACGTCG ((((((((.((((((((((+)))))))))).))))))))” to “CGACGTGCTGTATGTGCTG+CAGCACATTGCGCACGTCG ((((((((...((((((((+))))))))...))))))))”, the Tm falls from 59.5 °C to 47.9 °C.

Going from “CGACGTGCGTGATGTGCTG+CAGCACATGCTGCACGTCG ((((((((...((((((((+))))))))...))))))))” to “CGACGTGCGGAATGTGCTG+CAGCACATGTCGCACGTCG (((((((((..((((((((+))))))))..)))))))))”, the Tm rises from 49.8 °C to 57 °C.

First: CGACGTGCCGTATGTGCTG+CAGCACATTGCGCACGTCG ((((((((...((((((((+))))))))...))))))))
Second: CGACGTGCCGCATGTGCTG+CAGCACATGGTGCACGTCG ((((((((..(((((((((+)))))))))..))))))))
The Tm of the first is lower: 49.3 °C for the first, 52 °C for the second.

Compared with “CGACGTGCTTGATGTGCTG+CAGCACATTCGGCACGTCG ((((((((...((((((((+))))))))...))))))))”, “CGACGTGCAGAATGTGCTG+CAGCACATTAAGCACGTCG ((((((((..(((((((((+)))))))))..))))))))” is higher in Tm: 50.1 °C for the first, 53.3 °C for the second.

First: CGACGTGCCATATGTGCTG+CAGCACATGGAGCACGTCG ((((((((...((((((((+))))))))...))))))))
Second: CGACGTGCGCTATGTGCTG+CAGCACATCGCGCACGTCG ((((((((((.((((((((+)))))))).))))))))))
The Tm of the first is lower: 51.5 °C for the first, 60.1 °C for the second.

First: CGACGTGCCCCATGTGCTG+CAGCACATGAAGCACGTCG ((((((((..(((((((((+)))))))))..))))))))
Second: CGACGTGCATTATGTGCTG+CAGCACATCATGCACGTCG ((((((((((.((((((((+)))))))).))))))))))
The Tm of the first is lower: 52 °C for the first, 54.1 °C for the second.

Going from “CGACGTGCGTAATGTGCTG+CAGCACATGAGGCACGTCG ((((((((.(.((((((((+)))))))).).))))))))” to “CGACGTGCTCTATGTGCTG+CAGCACATGTGGCACGTCG ((((((((...((((((((+))))))))...))))))))”, the Tm falls from 53.6 °C to 50.4 °C.

First: CGACGTGCGTAATGTGCTG+CAGCACATCTTGCACGTCG ((((((((...((((((((+))))))))...))))))))
Second: CGACGTGCGATATGTGCTG+CAGCACATGGAGCACGTCG ((((((((...((((((((+))))))))...))))))))
The Tm of the first is lower: 49.7 °C for the first, 57.4 °C for the second.

First: CGACGTGCGTGATGTGCTG+CAGCACATCCTGCACGTCG ((((((((..(((((((((+)))))))))..))))))))
Second: CGACGTGCAGAATGTGCTG+CAGCACATCAAGCACGTCG ((((((((...((((((((+))))))))...))))))))
The Tm of the first is higher: 55.6 °C for the first, 50.6 °C for the second.

First: CGACGTGCAGCATGTGCTG+CAGCACATACCGCACGTCG ((((((((.(.((((((((+)))))))).).))))))))
Second: CGACGTGCCGAATGTGCTG+CAGCACATCCCGCACGTCG ((((((((.(.((((((((+)))))))).).))))))))
The Tm of the first is lower: 47.3 °C for the first, 49.6 °C for the second.

Going from “CGACGTGCCTTATGTGCTG+CAGCACATTCAGCACGTCG ((((((((...((((((((+))))))))...))))))))” to “CGACGTGCACTATGTGCTG+CAGCACATGAAGCACGTCG ((((((((...((((((((+))))))))...))))))))”, the Tm falls from 49 °C to 45.9 °C.

First: CGACGTGCTCGATGTGCTG+CAGCACATTACGCACGTCG ((((((((...((((((((+))))))))...))))))))
Second: CGACGTGCTATATGTGCTG+CAGCACATGTTGCACGTCG ((((((((.(.((((((((+)))))))).).))))))))
The Tm of the first is lower: 48.6 °C for the first, 52.6 °C for the second.

First: CGACGTGCCAAATGTGCTG+CAGCACATTATGCACGTCG ((((((((..(((((((((+)))))))))..))))))))
Second: CGACGTGCACAATGTGCTG+CAGCACATAAGGCACGTCG ((((((((...((((((((+))))))))...))))))))
The Tm of the first is higher: 51.2 °C for the first, 46.8 °C for the second.

Compared with “CGACGTGCGTTATGTGCTG+CAGCACATATCGCACGTCG (((((((((.(((((((((+))))))))).)))))))))”, “CGACGTGCACGATGTGCTG+CAGCACATCTCGCACGTCG ((((((((..(((((((((+)))))))))..))))))))” is lower in Tm: 56.5 °C for the first, 50.6 °C for the second.

Compared with “CGACGTGCCATATGTGCTG+CAGCACATGTCGCACGTCG ((((((((.(.((((((((+)))))))).).))))))))”, “CGACGTGCACCATGTGCTG+CAGCACATGCCGCACGTCG ((((((((..(((((((((+)))))))))..))))))))” is lower in Tm: 50.5 °C for the first, 48.6 °C for the second.

Going from “CGACGTGCCTCATGTGCTG+CAGCACATTTTGCACGTCG ((((((((...((((((((+))))))))...))))))))” to “CGACGTGCCAAATGTGCTG+CAGCACATTCCGCACGTCG ((((((((..(((((((((+)))))))))..))))))))”, the Tm rises from 46.6 °C to 50.1 °C.

Going from “CGACGTGCCTCATGTGCTG+CAGCACATCACGCACGTCG ((((((((.(.((((((((+)))))))).).))))))))” to “CGACGTGCGAAATGTGCTG+CAGCACATTGTGCACGTCG ((((((((..(((((((((+)))))))))..))))))))”, the Tm rises from 46.1 °C to 52.4 °C.

First: CGACGTGCACCATGTGCTG+CAGCACATTTTGCACGTCG (((((((((..((((((((+))))))))..)))))))))
Second: CGACGTGCATTATGTGCTG+CAGCACATAGTGCACGTCG (((((((((.(((((((((+))))))))).)))))))))
The Tm of the first is lower: 46.7 °C for the first, 53.1 °C for the second.

First: CGACGTGCCCTATGTGCTG+CAGCACATGGGGCACGTCG ((((((((((.((((((((+)))))))).))))))))))
Second: CGACGTGCATAATGTGCTG+CAGCACATAAAGCACGTCG ((((((((.(.((((((((+)))))))).).))))))))
The Tm of the first is higher: 61.4 °C for the first, 50.2 °C for the second.

Going from “CGACGTGCTTAATGTGCTG+CAGCACATGATGCACGTCG ((((((((.(.((((((((+)))))))).).))))))))” to “CGACGTGCCTAATGTGCTG+CAGCACATGCCGCACGTCG ((((((((...((((((((+))))))))...))))))))”, the Tm falls from 53 °C to 48.5 °C.

First: CGACGTGCGTGATGTGCTG+CAGCACATACCGCACGTCG (((((((((..((((((((+))))))))..)))))))))
Second: CGACGTGCTCGATGTGCTG+CAGCACATCCGGCACGTCG ((((((((..(((((((((+)))))))))..))))))))
The Tm of the first is higher: 55.3 °C for the first, 53.7 °C for the second.

First: CGACGTGCGCAATGTGCTG+CAGCACATAGTGCACGTCG ((((((((.(.((((((((+)))))))).).))))))))
Second: CGACGTGCTAGATGTGCTG+CAGCACATGGTGCACGTCG ((((((((...((((((((+))))))))...))))))))
The Tm of the first is higher: 51.6 °C for the first, 46.9 °C for the second.

Compared with “CGACGTGCATCATGTGCTG+CAGCACATACGGCACGTCG ((((((((...((((((((+))))))))...))))))))”, “CGACGTGCCCAATGTGCTG+CAGCACATATAGCACGTCG ((((((((...((((((((+))))))))...))))))))” is higher in Tm: 46.3 °C for the first, 48.5 °C for the second.

Compared with “CGACGTGCCTTATGTGCTG+CAGCACATCGGGCACGTCG (((((((((..((((((((+))))))))..)))))))))”, “CGACGTGCCCCATGTGCTG+CAGCACATTAAGCACGTCG ((((((((...((((((((+))))))))...))))))))” is lower in Tm: 53.1 °C for the first, 47.2 °C for the second.

Going from “CGACGTGCGCAATGTGCTG+CAGCACATGTAGCACGTCG ((((((((...((((((((+))))))))...))))))))” to “CGACGTGCTAAATGTGCTG+CAGCACATTGAGCACGTCG (((((((((.(((((((((+))))))))).)))))))))”, the Tm falls from 57.5 °C to 57.2 °C.

First: CGACGTGCGCCATGTGCTG+CAGCACATATAGCACGTCG ((((((((...((((((((+))))))))...))))))))
Second: CGACGTGCCTCATGTGCTG+CAGCACATATAGCACGTCG ((((((((...((((((((+))))))))...))))))))
The Tm of the first is higher: 52.4 °C for the first, 48.8 °C for the second.

— the array DNA melting data of Ke et al.
